The values below come from patent US20220235120A1 (UNIVERSITY OF MARYLAND BALTIMORE, published 2022).

Test [1] addresses Clostridium difficile toxin B (TcdB) (Clostridium difficile, UniProt P18177 2-2366). Description: cell-based or functional assay.
Test [2] concerns the target Clostridium difficile toxin A (TcdA) (Clostridium difficile, UniProt P16154 1-2710). Put plainly: cell-based or functional assay.

Where only a bound is given, the exact number is not on record here.

Chain of Clostridium difficile toxin B (TcdB) (P18177 2-2366 limits assumed): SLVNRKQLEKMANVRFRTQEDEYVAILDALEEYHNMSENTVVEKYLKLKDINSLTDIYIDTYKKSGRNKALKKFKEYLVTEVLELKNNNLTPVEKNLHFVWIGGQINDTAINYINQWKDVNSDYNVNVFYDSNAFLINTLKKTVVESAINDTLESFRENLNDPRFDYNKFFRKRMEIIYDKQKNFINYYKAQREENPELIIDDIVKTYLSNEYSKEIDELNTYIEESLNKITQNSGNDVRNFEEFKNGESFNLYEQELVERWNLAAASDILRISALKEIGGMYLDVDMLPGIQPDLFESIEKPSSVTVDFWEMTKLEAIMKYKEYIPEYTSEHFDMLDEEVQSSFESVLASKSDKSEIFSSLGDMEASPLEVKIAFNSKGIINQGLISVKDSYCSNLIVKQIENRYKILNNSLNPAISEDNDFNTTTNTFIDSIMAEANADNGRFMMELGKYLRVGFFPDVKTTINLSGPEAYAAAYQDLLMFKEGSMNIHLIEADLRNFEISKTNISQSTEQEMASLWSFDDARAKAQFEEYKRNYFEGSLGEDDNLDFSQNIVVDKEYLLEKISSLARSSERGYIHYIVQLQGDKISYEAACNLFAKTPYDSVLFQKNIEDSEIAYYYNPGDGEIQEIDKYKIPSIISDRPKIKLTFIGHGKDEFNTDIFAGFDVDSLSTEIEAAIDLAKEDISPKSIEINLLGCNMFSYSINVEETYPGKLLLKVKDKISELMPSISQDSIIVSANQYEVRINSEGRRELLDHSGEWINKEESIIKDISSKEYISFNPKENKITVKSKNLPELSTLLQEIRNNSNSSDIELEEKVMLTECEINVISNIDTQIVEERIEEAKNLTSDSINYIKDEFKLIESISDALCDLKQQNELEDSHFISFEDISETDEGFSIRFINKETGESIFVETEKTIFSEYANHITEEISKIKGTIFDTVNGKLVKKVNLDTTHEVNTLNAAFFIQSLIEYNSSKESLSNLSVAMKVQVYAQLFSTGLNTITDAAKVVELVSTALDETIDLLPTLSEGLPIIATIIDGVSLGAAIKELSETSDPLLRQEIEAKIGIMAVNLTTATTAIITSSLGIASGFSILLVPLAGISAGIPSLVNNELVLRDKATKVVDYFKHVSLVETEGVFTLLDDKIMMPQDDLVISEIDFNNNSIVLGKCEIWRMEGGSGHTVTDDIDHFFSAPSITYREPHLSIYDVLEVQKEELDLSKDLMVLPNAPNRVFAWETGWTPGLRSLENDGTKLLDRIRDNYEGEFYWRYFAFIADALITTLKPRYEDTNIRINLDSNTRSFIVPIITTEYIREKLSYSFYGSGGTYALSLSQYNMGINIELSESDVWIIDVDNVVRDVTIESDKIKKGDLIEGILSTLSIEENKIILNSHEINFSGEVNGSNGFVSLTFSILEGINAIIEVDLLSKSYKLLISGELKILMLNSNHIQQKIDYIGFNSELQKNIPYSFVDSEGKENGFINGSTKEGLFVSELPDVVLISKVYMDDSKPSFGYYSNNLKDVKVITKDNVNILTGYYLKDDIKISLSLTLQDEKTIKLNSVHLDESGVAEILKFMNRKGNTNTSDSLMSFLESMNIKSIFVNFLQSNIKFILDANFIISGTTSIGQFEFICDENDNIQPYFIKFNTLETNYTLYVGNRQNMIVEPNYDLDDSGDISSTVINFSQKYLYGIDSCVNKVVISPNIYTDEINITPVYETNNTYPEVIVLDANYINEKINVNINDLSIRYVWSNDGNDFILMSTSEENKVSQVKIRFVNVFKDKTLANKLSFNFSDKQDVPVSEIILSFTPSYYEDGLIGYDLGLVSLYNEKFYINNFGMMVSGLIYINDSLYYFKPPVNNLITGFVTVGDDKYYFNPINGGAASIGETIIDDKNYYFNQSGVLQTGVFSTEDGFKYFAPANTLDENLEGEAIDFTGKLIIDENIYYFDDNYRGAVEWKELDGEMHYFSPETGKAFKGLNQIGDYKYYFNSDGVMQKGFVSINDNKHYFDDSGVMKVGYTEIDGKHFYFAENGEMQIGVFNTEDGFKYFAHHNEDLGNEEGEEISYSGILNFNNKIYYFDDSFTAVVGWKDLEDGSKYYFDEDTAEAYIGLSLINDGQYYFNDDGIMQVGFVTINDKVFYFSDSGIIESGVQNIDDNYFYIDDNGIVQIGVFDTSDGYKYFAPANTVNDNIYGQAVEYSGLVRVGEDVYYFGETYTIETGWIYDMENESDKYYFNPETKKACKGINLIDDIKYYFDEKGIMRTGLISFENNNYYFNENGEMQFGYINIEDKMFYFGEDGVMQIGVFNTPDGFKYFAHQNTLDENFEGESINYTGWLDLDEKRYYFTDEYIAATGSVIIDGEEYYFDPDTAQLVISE
Chain of Clostridium difficile toxin A (TcdA) (P16154 whole entry): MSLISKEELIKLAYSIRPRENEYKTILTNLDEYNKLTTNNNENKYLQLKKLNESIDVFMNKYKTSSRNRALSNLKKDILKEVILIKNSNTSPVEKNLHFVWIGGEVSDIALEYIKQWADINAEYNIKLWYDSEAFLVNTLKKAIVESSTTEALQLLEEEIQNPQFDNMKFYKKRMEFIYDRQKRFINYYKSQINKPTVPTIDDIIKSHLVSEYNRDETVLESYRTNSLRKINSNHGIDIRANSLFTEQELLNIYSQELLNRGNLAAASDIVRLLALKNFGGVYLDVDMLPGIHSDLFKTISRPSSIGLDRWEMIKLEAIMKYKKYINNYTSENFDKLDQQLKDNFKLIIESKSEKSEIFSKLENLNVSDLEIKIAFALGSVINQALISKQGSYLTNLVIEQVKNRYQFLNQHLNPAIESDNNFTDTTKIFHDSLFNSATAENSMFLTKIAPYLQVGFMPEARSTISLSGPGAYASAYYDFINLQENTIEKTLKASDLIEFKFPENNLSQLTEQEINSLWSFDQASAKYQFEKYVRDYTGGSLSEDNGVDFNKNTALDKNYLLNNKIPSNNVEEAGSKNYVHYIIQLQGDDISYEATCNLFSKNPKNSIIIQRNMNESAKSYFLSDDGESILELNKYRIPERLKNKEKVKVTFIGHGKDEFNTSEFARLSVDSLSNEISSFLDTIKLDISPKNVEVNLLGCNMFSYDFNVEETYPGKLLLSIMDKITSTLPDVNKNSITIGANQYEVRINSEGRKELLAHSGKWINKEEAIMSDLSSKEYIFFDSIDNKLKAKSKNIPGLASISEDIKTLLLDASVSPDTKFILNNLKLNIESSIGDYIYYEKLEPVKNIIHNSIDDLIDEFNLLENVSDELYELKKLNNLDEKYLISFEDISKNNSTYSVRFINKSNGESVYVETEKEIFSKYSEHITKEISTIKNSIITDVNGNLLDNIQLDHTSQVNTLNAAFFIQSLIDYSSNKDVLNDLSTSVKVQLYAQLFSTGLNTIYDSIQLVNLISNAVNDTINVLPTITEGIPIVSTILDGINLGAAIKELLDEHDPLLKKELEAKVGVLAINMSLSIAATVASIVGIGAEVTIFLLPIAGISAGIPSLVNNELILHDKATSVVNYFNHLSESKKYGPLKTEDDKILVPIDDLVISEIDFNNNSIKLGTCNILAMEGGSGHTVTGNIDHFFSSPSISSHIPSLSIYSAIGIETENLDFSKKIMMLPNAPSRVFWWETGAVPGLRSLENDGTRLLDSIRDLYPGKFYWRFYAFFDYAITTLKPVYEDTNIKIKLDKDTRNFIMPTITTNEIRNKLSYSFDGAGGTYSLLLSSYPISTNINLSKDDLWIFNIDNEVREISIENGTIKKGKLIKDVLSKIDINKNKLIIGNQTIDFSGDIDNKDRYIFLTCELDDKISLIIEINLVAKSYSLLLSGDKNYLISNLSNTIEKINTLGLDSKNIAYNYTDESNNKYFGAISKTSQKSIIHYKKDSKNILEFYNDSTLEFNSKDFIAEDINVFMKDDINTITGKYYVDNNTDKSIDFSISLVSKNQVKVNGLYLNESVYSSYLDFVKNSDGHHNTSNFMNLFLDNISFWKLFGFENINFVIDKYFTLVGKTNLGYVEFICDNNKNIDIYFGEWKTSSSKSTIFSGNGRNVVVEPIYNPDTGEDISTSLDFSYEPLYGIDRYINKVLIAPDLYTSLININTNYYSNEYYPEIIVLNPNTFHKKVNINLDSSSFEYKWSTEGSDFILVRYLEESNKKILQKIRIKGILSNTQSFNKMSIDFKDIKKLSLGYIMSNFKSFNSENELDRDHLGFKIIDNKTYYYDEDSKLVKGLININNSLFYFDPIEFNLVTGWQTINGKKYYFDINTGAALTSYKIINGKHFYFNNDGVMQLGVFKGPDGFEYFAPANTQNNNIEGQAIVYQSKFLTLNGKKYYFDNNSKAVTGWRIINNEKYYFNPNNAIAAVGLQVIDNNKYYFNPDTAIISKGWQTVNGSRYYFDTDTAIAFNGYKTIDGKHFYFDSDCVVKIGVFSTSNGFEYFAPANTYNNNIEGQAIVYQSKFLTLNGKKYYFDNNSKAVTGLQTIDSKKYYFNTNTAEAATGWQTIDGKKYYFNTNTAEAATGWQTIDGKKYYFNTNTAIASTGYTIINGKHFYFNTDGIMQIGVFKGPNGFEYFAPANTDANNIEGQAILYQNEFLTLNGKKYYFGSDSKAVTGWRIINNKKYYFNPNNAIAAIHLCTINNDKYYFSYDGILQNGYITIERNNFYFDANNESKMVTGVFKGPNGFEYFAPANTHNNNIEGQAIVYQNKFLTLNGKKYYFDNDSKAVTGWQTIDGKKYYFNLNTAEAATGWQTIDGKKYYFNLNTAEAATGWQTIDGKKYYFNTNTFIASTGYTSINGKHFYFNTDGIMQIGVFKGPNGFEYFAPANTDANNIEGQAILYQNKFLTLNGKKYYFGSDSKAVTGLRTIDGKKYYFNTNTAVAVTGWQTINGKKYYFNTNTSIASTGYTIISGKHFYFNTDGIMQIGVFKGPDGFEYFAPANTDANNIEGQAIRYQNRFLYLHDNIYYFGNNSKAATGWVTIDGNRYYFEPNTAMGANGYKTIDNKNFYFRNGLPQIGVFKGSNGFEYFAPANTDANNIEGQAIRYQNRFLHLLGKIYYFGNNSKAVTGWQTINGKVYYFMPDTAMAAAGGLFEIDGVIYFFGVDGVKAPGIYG

B1: FZ003 binding agent (tetra-specific, octameric VHH-IgG1 with CDR-grafted humanized VHHs) (bispecific antibody)
light: EVQLLESGGGLVQPGGSLRLSCAASGFTFSDYVMTWVRQAPGKGPEWIATINTDGSTMRDDSTKGRFTISRDNSKNTLYLQMNSLRAEDTAVYYCARGRVISASAIRGAVRGQGTLVTVSSGGGGSGGGGSGGGGSEVQLLESGGGLVQPGGSLRLSCAASGSIAGFETVTWSRQAPGKSLQWVASMTKTNNEIYSDSVKGRFTISRDNSKNTVYLQMNSLRAEDTAVYYCKGPELRGQGTLVTVSSRTVAAPSVFIFPPSDEQLKSGTASVVCLLNNFYPREAKVQWKVDNALQSGNSQESVTEQDSKDSTYSLSSTLTLSKADYEKHKVYACEVTHQGLSSPVTKSFNRGEC
heavy: not shown
Take B1: the “survival in mouse systemic toxin challenge (toxins pre-incubated with antibody)” value in test [1] and in test [2] was > 1000 fold more potent than the Merck antibody throughout.
